{
  "source": "paper PMC4598023",
  "about": "(PLoS ONE, 2015)",
  "key": {"[1]": {"assay": "Amylin aggregation kinetics by ThT fluorescence, up to 12 h at varying pH", "format": "physicochemical", "details": "50 μM peptide, 10 mM buffer, 20 μM ThT, 2% DMSO, 25°C", "procedure": "In this case, at the indicated time 160 μL sample were mixed with 40 μL ThT 100 μM. In both cases the thioflavin T fluorescence was measured by setting excitation at 450 nm and emission at 482 nm. […] The aggregation curves were fitted using a 4 parameter logistic function and the t1/2, elongation rate and lag time were estimated as described elsewhere [65]."}, "[2]": {"target": "T1, Fluorescein-Labelled Murine Amylin (Mus musculus, UniProt P12968)", "T1 sequence (P12968 38-74 limits assumed)": "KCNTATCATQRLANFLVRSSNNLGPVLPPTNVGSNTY", "assay": "Isothermal binding assay, fluorescence anisotropy (amylin self-assembly)", "details": "PBS pH 7.4, 25°C; for Anisotropy: 50 nM labelled murine amylin, mean of five measurements", "experimental": "(§1) The proteins (CTR, RAMP and murine amylin) were labeled with fluorescein isothiocyanate (FITC; Sigma-Aldrich; 0.2 mM final concentration, from stock in DMSO at 5 mM freshly prepared) in 20 mM Na2HPO4, 300 mM NaCl, pH 7.0, for 60 min at 25°C protected from light. The reaction was quenched by adding an excess of Tris-HCl. The free fluorescein was removed by chromatography with a Sephadex G25 desalting column (GE Healthcare, Brazil). The labeling efficiency, final yield and protein quantification were calculated as described elsewhere. The labeling efficiency was below 1 mol FITC:1 mol protein for all labeling procedures. Labeled proteins were stored until use protected from light at -20°C for no longer than 3 months.\n(§2) The fluorescence measurements were conducted in a Spectramax M5 (Molecular Devices) microplate reader, with excitation and emission set at 480 nm and 520 nm respectively, with cut-off filter 515 nm. The results represent the mean and the standard error of the mean (SEM) of five measurements. Binding data analysis was performed with SigmaPlot 12.5 (Systat Software, Inc., CA, USA).\n(§3) Fig 4 Amylin self-assembly and interaction with co-receptors. […] Assays were conducted in PBS, pH 7.4, 25°C, in the presence of 50 nM FITC-labelled proteins (amylin, CTR–1 or RAMP–3). Ex 480 nm, Em 520 nm, filter 515 nm. The raw data can be found in S2 File."}, "[3]": {"target": "T2, human receptor-activity modifying protein 3 Extracellular Topological Domain (RAMP3-ETD), fluorescein-labelled (Homo sapiens, UniProt O60896)", "T2 construct": "RAMP3-ETD; residues 28–117; UNIPROT identifier O60896; His tag (N); thrombin cleavage site (N); made in house; host or cells: E. coli BL21DE3pLys", "T2 sequence (O60896 28-117)": "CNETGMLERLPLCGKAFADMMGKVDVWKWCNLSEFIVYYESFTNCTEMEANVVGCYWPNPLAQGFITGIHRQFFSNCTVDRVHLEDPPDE", "assay": "Isothermal binding assay, fluorescence anisotropy, RAMP-3", "details": "for Anisotropy: 50 nM labelled RAMP-3, PBS pH 7.4, 25°C, mean of five measurements", "from_the_text": "The human receptor-activity modifying protein 3 Extracellular Topological Domain (RAMP3-ETD; residues 28–117; UNIPROT identifier O60896; Sequence in S1 File) was obtained by heterologous production in E. coli and further purified from inclusion bodies. The synthetic DNA sequence encoding the RAMP3-ETD of RAMP3 was cloned into bacterial protein expression vector pET28b (Novagen/EMD Millipore) from the synthetic gene using NdeI and EcoRI. The sequence and identity of the gene in the pET28b-RAMP3 construct was confirmed with DNA sequencing. The gene synthesis, cloning and sequencing services were provided by GenScript Corporation (Piscataway, NJ, USA).\nRAMP3 was produced and purified as described previously for the homologous protein RAMP2 [56]. The RAMP3-ETD was produced as a fusion protein containing an N-terminal histidine tag and a thrombin protease cleavage site, by heterologous expression in E. coli BL21DE3pLys (1 mM IPTG, 37°C, 3 h). […] The purified RAMP3-ETD was refolded by rapid dilution into cold buffer 50 mM sodium phosphate buffer (pH 8.3) containing 1 M arginine hydrochloride, 5 mM reduced glutathione, 1 mM oxidized glutathione, and 1 mM EDTA and left stand for 24 h at 4°C. After refolding, RAMP3-ETD was dialyzed, concentrated in AMICON (Millipore, Brazil), and stored in 20 mM sodium phosphate buffer and 500 mM NaCl, pH 7.0, in liquid nitrogen until use. Purity was over 95% as judged by SDS-PAGE, routine size-exclusion chomatography and MALDI-ToF-MS. The purified RAMP3 was quantified by absorbance at 280 nm, using 21,345 M^-1cm^−1 as extinction coefficient.\nas §1, §2, §3"}, "[4]": {"assay": "Morphologic analysis of aggregation products by transmission electron microscopy (TEM)", "format": "physicochemical", "details": "negative stain 2% uranyl acetate; products of the aggregation kinetics", "from_the_text": "Samples from aggregation kinetic assay were applied to 300 mesh, Formvar-carbon-coated Cu grids (Electron Microscopy Science, USA), followed by negative stain with 2% uranyl acetate, pH 4.8, for 30–60 s.\nScale bar = 200 nm. The raw data can be found in S2 File."}},
  "note": "Bridges are numbered along the chain shown (N, C = ends). Where no end group is shown, it is not given here.",
  "data": [
    {"substance": "PEGylated human amylin: human amylin monoconjugated at the N-terminal Lys1 region with 5 kDa methoxyl polyethylene glycol succinimidyl carbonate (mPEGsc5k) (KCNTATCATQRLANFLVHSSNNFGAILSSTNVGSNTY-NH2; disulfide 2-7; also: one mPEG 5 kDa (mPEGsc5k) on a Lys1 amino group)", "values": [
      {"measurement": "changes in ThT fluorescence in the 12 h time window", "setting": "[1]", "value": "did not observe changes in fluorescence"},
      {"measurement": "self-assembly with amylin (in words)", "setting": "[2]; fluorescence anisotropy, 50 nM FITC-labelled protein", "value": "PEGylation did not abolish the assembly"},
      {"measurement": "Anisotropy", "setting": "[2]; ligand 0.0492 µM", "value": 0.0707},
      {"measurement": "Anisotropy", "setting": "[2]; ligand 0.1229 µM", "value": 0.0637},
      {"measurement": "Anisotropy", "setting": "[2]; ligand 0.3072 µM", "value": 0.0575},
      {"measurement": "Anisotropy", "setting": "[2]; ligand 0.768 µM", "value": 0.0698},
      {"measurement": "Anisotropy", "setting": "[2]; ligand 1.92 µM", "value": 0.0836},
      {"measurement": "Anisotropy", "setting": "[2]; ligand 4.8 µM", "value": 0.232},
      {"measurement": "Anisotropy", "setting": "[2]; ligand 12 µM", "value": 0.2936},
      {"measurement": "Anisotropy", "setting": "[2]; ligand 30 µM", "value": 0.27},
      {"measurement": "binding to coreceptor RAMP3 (in words)", "setting": "[3]; fluorescence anisotropy, PBS pH 7.4, 25°C, 50 nM FITC-labelled protein", "value": "PEGylation did not abolish the assembly"},
      {"measurement": "Anisotropy", "setting": "[3]; ligand 0.0492 µM", "value": 0.0481},
      {"measurement": "Anisotropy", "setting": "[3]; ligand 0.1229 µM", "value": 0.0421},
      {"measurement": "Anisotropy", "setting": "[3]; ligand 0.3072 µM", "value": 0.0449},
      {"measurement": "Anisotropy", "setting": "[3]; ligand 0.768 µM", "value": 0.0486},
      {"measurement": "Anisotropy", "setting": "[3]; ligand 1.92 µM", "value": 0.0614},
      {"measurement": "Anisotropy", "setting": "[3]; ligand 4.8 µM", "value": 0.1188},
      {"measurement": "Anisotropy", "setting": "[3]; ligand 12 µM", "value": 0.2199},
      {"measurement": "Anisotropy", "setting": "[3]; ligand 30 µM", "value": 0.1286},
      {"measurement": "fibrils by TEM after aggregation assay", "setting": "[4]", "value": "no fibrils were observed"}
    ]}
  ]
}
